Measured values from patent publication US20060121580A1 (CRUCELL HOLLAND B V, published 2006).

How the values were obtained:
[1] = target: S318-510 fragment (amino acids 318-510 of the S protein of SARS-CoV Frankfurt 1), myc-His tagged (SARS-CoV strain Frankfurt 1, UniProt P59594 318-510); test: IgG ELISA on S318-510 fragment
[2] = target: S565 fragment (amino acids 1-565 of the S protein of SARS-CoV), myc-His tagged (SARS-CoV strain Frankfurt 1, UniProt P59594 14-565); test: IgG ELISA on captured S565
[3] = target: full length S protein of SARS-CoV expressed on HEK293T cells (SARS-CoV strain Frankfurt 1, UniProt P59594 14-1255); test: flow cytometry, 10 µg/ml IgG on transfected HEK293T cells

| Binder | binding result [1] | binding result [2] | binding result [3] |
| --- | --- | --- | --- |
| human monoclonal anti-SARS-CoV antibody 03-009 (antibody, V domains shown) VH: EVQLVESGGGVVQPGRSLRLSCAASGFTFSDYPMNWVRQAPGKGLEWVSSISGSGGSTYYADSVKGRFTISRDNSKNTLYLQMNSLRAEDTAVYYCAKGLFMVTTYAFDYWGQGTLVTVSS VL: not shown | no binding |  |  |
| human monoclonal anti-SARS-CoV antibody 03-002 (antibody, V domains shown) VH: EVQLVESGGGLVKPGGSLRLSCAASGFTFSGYSMSWVRQAPGKGLEWVGRTRNKANSYTTEYAASVKGRFTISRDDSKNSLYLQMNSLKTEDTAVYYCARYYSRSLKAFDYWGQGTLVTVSS VL: not shown | no binding |  |  |
| human monoclonal anti-SARS-CoV antibody 03-015 (antibody, V domains shown) VH: EVQLVESGGGVVRPGGSLRLSCAASGFTFDDYGMSWVRQAPGKGLEWVSGINWNGGSTGYADSVKGRFTISRDNAKNSLYLQMNSLRAEDTAVYYCARGLSLRPWGQGTLVTVSS VL: SSELTQDPAESVALGQTVRITCQGDSLRSYYASWYQQKPGQAPVLVIYGKNNRPSGIPDRFSGSSSGNTASLTITGAQAEDEADYYCNSRDSSGNHVVFGGGTKLTVLG | no binding | no binding | binds |
| human monoclonal anti-SARS-CoV antibody 03-001 (antibody, V domains shown) VH: EVQLVESGGGLVKPGGSLRLSCAASGFTFSGYSMNWVRQAPGKGLEWVSSISGGSTYYADSRKGRFTISRDNSKNTLYLQMNNLRAEDTAVYYCARHRFRHVFDYWGQGTLVTVSS VL: not shown | no binding |  |  |
| human monoclonal anti-SARS-CoV antibody 03-006 (antibody, V domains shown) VH: EVQLVESGGGLVQPGGSLRLSCAASGFTFSGYPMHWVRQAPGKGLEWVAVISYDGSNKYYADSVKGRFTISRDNSKNTLYLQMNSLRAEDTAVYYCAKDGSPRTPSFDYWGQGTLVTVSS VL: DIQMTQSPHSLSASVGDRVTITCRASQGISNYLAWYQQKPGKVPKLLIYAASTLQSGVPSRFSGSGSGTDFTLTISSLQPEDVGVYYCQQRFRTPVTFGQGTKLEIKR | binds | binds | binds |
| human monoclonal anti-SARS-CoV antibody 03-013 (antibody, V domains shown) VH: EVQLVESGGGLVQPGGSLRLSCAASGFTFSDHYMDWVRQAPGKGLEWVGRTRNKANSYTTEYAASVKGRFTISRDDSKNSLYLQMNSLKTEDTAVYYCAKGLTPLYFDYWGQGTLVTVSS VL: not shown | binds | binds | binds |
| human monoclonal anti-SARS-CoV antibody 03-014 (antibody, V domains shown) VH: EVQLVESGGGLVQPGGSLRLSCAASGFTFSDHYMDWVRQAPGKGLEWVGRTRNKANSYTTEYAASVKGRFTISRDDSKNSLYLQMNSLKTEDTAVYYCARGISPFYFDYWGQGTLVTVSS VL: not shown | binds | binds |  |
